Where no end group is shown, it is not given here. [ ]: non-standard residue; d: D form. The star is where a group is joined. pT = C[C@@H](OP(=O)(O)O)[C@H](N)C(=O)O; Butyl(4-Ph) = c1ccc(CCCC*)cc1
B1: peptide GPMQSpTPLNG-OH (9) (peptide)
peptide: GPMQS[pT]PLNG-OH
modifications: N-terminus assumed
SMILES: CSCC[C@H](NC(=O)[C@@H]1CCCN1C(=O)CN)C(=O)N[C@@H](CCC(N)=O)C(=O)N[C@@H](CO)C(=O)N[C@H](C(=O)N1CCC[C@H]1C(=O)N[C@@H](CC(C)C)C(=O)N[C@@H](CC(N)=O)C(=O)NCC(=O)O)[C@@H](C)OP(=O)(O)O

How the values were obtained:
[1] = molecular target: Plk1 polo-box domain (PBD), purified protein of the fluorescence polarization assay; assay: fluorescence polarisation
HA-EGFP-Plk1, P53350 = assay: ELISA; conditions: remark: other sources report otherwise
Chain of HA-EGFP-Plk1, P53350 (P53350 whole entry): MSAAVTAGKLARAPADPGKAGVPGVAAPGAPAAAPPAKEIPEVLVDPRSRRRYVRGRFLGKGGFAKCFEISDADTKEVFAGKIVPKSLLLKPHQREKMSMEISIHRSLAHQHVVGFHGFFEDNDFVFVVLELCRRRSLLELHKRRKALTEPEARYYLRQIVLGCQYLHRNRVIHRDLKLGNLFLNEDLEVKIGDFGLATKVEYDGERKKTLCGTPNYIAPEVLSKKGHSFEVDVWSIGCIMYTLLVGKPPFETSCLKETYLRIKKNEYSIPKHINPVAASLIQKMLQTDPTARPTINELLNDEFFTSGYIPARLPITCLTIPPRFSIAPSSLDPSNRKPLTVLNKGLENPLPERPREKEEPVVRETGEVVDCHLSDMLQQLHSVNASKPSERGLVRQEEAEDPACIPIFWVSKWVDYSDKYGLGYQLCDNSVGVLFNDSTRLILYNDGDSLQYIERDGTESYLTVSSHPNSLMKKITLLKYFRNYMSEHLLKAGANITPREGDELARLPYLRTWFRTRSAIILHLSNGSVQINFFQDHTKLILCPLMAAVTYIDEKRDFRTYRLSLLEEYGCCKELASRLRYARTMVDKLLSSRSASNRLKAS

Binder	IC50 [1] [nM]	IC50 (HA-EGFP-Plk1, P53350) [nM]
B1	1120	–
P(Butyl(4-Ph))LHS[pT] [peptide 8]	38	–
P(Butyl(4-Ph))LHA[pT] [peptide 7(S4A)]	4150	43000

— paper PMC3355227
